Source: PMC4428439, “Anti-adaptors use distinct modes of binding to inhibit the RssB-dependent turnover of RpoS (σ^S) by ClpXP” (Frontiers in Molecular Biosciences, 2015)

T1: RssBC, C-terminal domain of RssB (residues 131-337), untagged, purified (E. coli, UniProt P0AEV1 131-337)
T1 construct: RssB, E. coli, C-terminal effector domain, residues 131-337; also called C-terminal effector domain of RssB; source: E. coli, Ub-fusion system, purified (IMAC, SEC)
T1 sequence (looked up): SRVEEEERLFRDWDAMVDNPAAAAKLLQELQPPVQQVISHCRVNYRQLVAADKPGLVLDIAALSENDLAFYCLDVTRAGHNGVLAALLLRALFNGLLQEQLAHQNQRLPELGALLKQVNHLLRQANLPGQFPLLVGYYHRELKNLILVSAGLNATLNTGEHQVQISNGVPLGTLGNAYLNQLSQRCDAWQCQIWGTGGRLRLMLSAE

B1: RssB, full-length, untagged, purified (natural protein, E. coli, UniProt P0AEV1 1-337, looked up)
chain: MTQPLVGKQILIVEDEQVFRSLLDSWFSSLGATTVLAADGVDALELLGGFTPDLMICDIAMPRMNGLKLLEHIRNRGDQTPVLVISATENMADIAKALRLGVEDVLLKPVKDLNRLREMVFACLYPSMFNSRVEEEERLFRDWDAMVDNPAAAAKLLQELQPPVQQVISHCRVNYRQLVAADKPGLVLDIAALSENDLAFYCLDVTRAGHNGVLAALLLRALFNGLLQEQLAHQNQRLPELGALLKQVNHLLRQANLPGQFPLLVGYYHRELKNLILVSAGLNATLNTGEHQVQISNGVPLGTLGNAYLNQLSQRCDAWQCQIWGTGGRLRLMLSAE
notes: RssB (SprE), adaptor protein of ClpXP, E. coli; residues 1-337 by the printed domain limits; Monomeric and dimeric RssB were separated by preparative SEC; degradation assays used monomeric RssB; also called SprE; full-length RssB; source: E. coli, Ub-fusion system, purified (IMAC, preparative SEC)
B2: His10-tagged IraD (natural protein, E. coli, UniProt P39375 1-130, looked up)
chain: MMRQSLQAVLPEISGNKTSSLRKSVCSDLLTLFNSPHSALPSLLVSGMPEWQVHNPSDKHLQSWYCRQLRSALLFHEPRIAALQVNLKEAYCHTLAISLEIMLYHDDEPLTFDLVWDNGGWRSATLENVS
notes: IraD, anti-adaptor induced by DNA damage, E. coli; source: E. coli, overexpressed, purified (essentially as Bougdour et al., 2008)
B3: RssBN, N-terminal domain of RssB (residues 1-129), untagged, purified (domain or fragment, E. coli, UniProt P0AEV1 1-129, looked up)
chain: MTQPLVGKQILIVEDEQVFRSLLDSWFSSLGATTVLAADGVDALELLGGFTPDLMICDIAMPRMNGLKLLEHIRNRGDQTPVLVISATENMADIAKALRLGVEDVLLKPVKDLNRLREMVFACLYPSMF
notes: RssB, E. coli, N-terminal domain, residues 1-129; also called N-domain of RssB; receiver domain; source: E. coli, Ub-fusion system, purified (IMAC, SEC)
B4: IraP with a C-terminal His10-tag, purified (natural protein, E. coli, UniProt P0AAN9 1-86, looked up)
chain: MKNLIAELLFKLAQKEEESKELCAQVEALEIIVTAMLRNMAQNDQQRLIDQVEGALYEVKPDASIPDDDTELLRDYVKKLLKHPRQ
notes: IraP, anti-adaptor induced by phosphate starvation, E. coli; also called His10-tagged IraP; source: E. coli, overexpressed, purified (essentially as Bougdour et al., 2008); not shown: His10, C-terminal, kept

Key:
[1] = target: the molecule itself; test: SEC; preparative grade SEC in the purification of untagged RssB, separating monomeric and dimeric RssB
[2] = target: B1; test: pull-down; purified His10-tagged IraD immobilised on Ni-NTA agarose beads; purified untagged RssB, RssBN or RssBC added; washed, eluted with imidazole; SDS-PAGE, CBB; details: both partners purified
[3] = target: the molecule itself; test: SEC; Superdex 75; 5 nmol of IraD, RssBN or the IraD-RssBN complex; chilled GF buffer (20 mM Tris-HCl pH 7.5, 10 mM MgCl2, 0.1 mM EDTA, 1 mM DTT, 140 mM NaCl, 5% glycerol, 0.005% Triton X-100); fractions on SDS-PAGE, CBB
[4] = target: T1, RssBC, C-terminal domain of RssB …; test: pull-down; purified IraP immobilised on Ni-NTA agarose beads via a C-terminal His10-tag; purified RssB, RssBN or RssBC added; washed, eluted with imidazole; immunoblotting; details: both partners purified

For B1, which “stoichiometry N” value [1] is on record?
The value was 2.

Does B2 bind [2]?
Result: binds

What about the “stoichiometry N” value [3] of the same binder?
Its value is 2.

B3 was tested. Which “stoichiometry N” value [3] did it give?
The value was 2.

Does B4 bind [4]?
Result: binds
